The values below come from the supplement of paper PMC10567573.

The data set can be described thus: protein stability index of a GFP-peptide fusion (GPS, HEK-293T) (PSI 1-6); higher = more stable.
The mark [1] stands for this setting: treatment: DMSO, c terminus: a fixed tail appended.
Setting [2] is: treatment: MLN4924 1 uM, 8 h, c terminus: a fixed tail appended.
[3] abbreviates: treatment: DMSO, c terminus: native.
[4] abbreviates: treatment: MLN4924 1 uM, 8 h, c terminus: native.

± gives the standard deviation.
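Note: 24-mer peptide tiles fused after GFP, lentivirally expressed, FACS-sorted into six equal bins by GFP/DsRed ratio, decoded by Illumina sequencing, PSI is the read-weighted mean bin number.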

Turning to LTIEERYLPQCSYFKCVQKDIQPY [CCND2], the protein stability index under setting [1] was found to be 2.37 ± 0.31 and the protein stability index under setting [2] stood at 2.49 ± 0.24.
With LTVQFVQGIFVEKYDPTIEDSYRK [RAP1B], the protein stability index turned out to be 2.17 ± 0.47 under setting [1] and 2.1 ± 0.57 under setting [2].
Regarding LVLPLVPELLSTHPFFDTAEPDMD [INTS4], the protein stability index runs as follows: under setting [1], 2.56 ± 0.11; under setting [2], 2.76 ± 0.68.
For the sequence LVLYPTSLAIFSEELDGLCFKGEL [PLEKHN1], the protein stability index was found to be 2.88 ± 0.58 under setting [1] and 2.96 ± 0.23 under setting [2].
As to LVSWLPRLNAYRGYCSNQLAAKAL [NET1], the protein stability index by setting is: under setting [1], 2.5 ± 1; under setting [2], 2.1 ± 0.2.
On to LVVHTGCKDFLCQFCAQRFGRKDH [PLAGL1], for which the protein stability index runs as follows: under setting [1], 2.6 ± 0.34; under setting [2], 2.98 ± 0.091.
For LVYVAAFSIGLGPMPWLVLSEIFP [SLC2A12], the protein stability index came out at 3.22 ± 0.44 under setting [1] and 3.19 ± 0.7 under setting [2].
MAAKSQPNIPKAKSLDGVTNDRTA [DHCR7]: the protein stability index runs as follows: under setting [1], 5 ± 0.15; under setting [2], 5.04 ± 0.16.
For MASTTTCTRFTDEYQLFEELGKGA [CAMK2D], in that order: 3.74 ± 0.38 and 3.64 ± 0.29.
Taken in the same sequence, the figures for MAYAKLMLTVMTKYQANITETQRL [FANCE] were 3.16 ± 0.75 and 2.95 ± 0.52.
MCLKKNHEEEVSVLRCQLGDRLNV [KRT36]: the protein stability index worked out at 3.24 ± 0.29 under setting [1] and 3.02 ± 0.35 under setting [2].
Regarding MCQTKHSPWADGTPCGPAQACMGG [ADAMTS4], the protein stability index is, setting by setting: under setting [1], 3.26 ± 0.43; under setting [2], 3.44 ± 0.4.
On to MDGQTDFWRDWEDYAHGFGNISGE [TNXB], for which the protein stability index by setting is: under setting [1], 3.94 ± 0.34; under setting [2], 4.34 ± 0.58.
METLCLRASFWLALVGCVISDNPE [EDNRA] came in with a protein stability index under setting [1] of 3.25 ± 0.19 and a protein stability index under setting [2] of 2.7 ± 0.75.
Regarding MFLAMLAVVSCASIGSGEPPTGN [CDK11A], the protein stability index was found to be 2.67 ± 0.36 under setting [3] and 2.46 ± 0.39 under setting [4].
Consider MGLVETKLAIIPGGGGTQRLPRAI [AUH], for which the protein stability index came to 2.99 ± 0.82 under setting [1] and 3.34 ± 0.35 under setting [2].
On to MGQKLSGSLKSVEVREPALRPAKR [SPSB4], for which the protein stability index reads like this: under setting [1], 4.37 ± 0.31; under setting [2], 4.62 ± 0.11.
On to MIVDVTPYMNPSPFTVSPNTHVSQ [CLCN6], for which the protein stability index by setting is: under setting [1], 2.47 ± 0.17; under setting [2], 2.8 ± 0.31.
Taken in the same sequence, the figures for MKLSLGGSEMGLSSHLQSSKAGPT [KLHL13] were 3.79 ± 0.26 and 3.57 ± 0.29.
Take MLEMVPEKRASAGECLRHPWLNS [SRPK2]: the protein stability index amounted to 3.79 ± 0.34 under setting [3] and 3.85 ± 0.25 under setting [4].
Regarding MLKAEETCAPSVSYFKCVQKEVLP [CCND1], the protein stability index is 3.52 ± 0.12 under setting [1] and 3.55 ± 0.24 under setting [2].
For MLLELTRRGQEPLSALLQFGVTYL [BCL2L13], the protein stability index reads like this: under setting [1], 2.63 ± 0.59; under setting [2], 2.4 ± 0.41.
Taken in the same sequence, the figures for MLQIPQEKSQAYPRRRRPGCYAYR [MYORG] were 3.22 ± 0.43 and 3.23 ± 0.23.
For MMNQSMMGMNMNIGMSAAGMGLTG [CLINT1], in that order: 2.46 ± 0.39 and 2.53 ± 0.3.
Take MNMLWSRMLKDNKKNWRRVYKSLL [CLINT1]: the protein stability index amounted to 2.62 ± 0.74 under setting [1] and 2.58 ± 0.61 under setting [2].
Regarding MNSLLIGELSPEQPSFEPTKNKEL [FADS1], the protein stability index was 4.26 ± 0.091 under setting [1] and 4.8 ± 0.21 under setting [2].
Regarding MNVMLKSSPVDLVTATDQKVEKML [IMPA1], the protein stability index reads like this: under setting [1], 3.832 ± 0.018; under setting [2], 3.96 ± 0.49.
Take MQPSKPQQPSLNTMIQQQNMQQPM [CLINT1]: the protein stability index was 4.1 ± 0.13 under setting [1] and 4.34 ± 0.46 under setting [2].
Turning to MRFASGRPAFVRVRRGHSHLAPSE, the protein stability index worked out at 3.08 ± 0.22 under setting [1] and 3.29 ± 0.4 under setting [2].
In turn, MRQDLEEERVALNTEIEKLGRSIV [PKD2L1] came in with a protein stability index under setting [1] of 4.29 ± 0.13 and a protein stability index under setting [2] of 4.38 ± 0.23.
Take MSWRGRSTYYWPRPRRYVQPPEMI [GAGE1]: the protein stability index by setting is: under setting [1], 2.64 ± 0.43; under setting [2], 2.55 ± 0.24.
With MTTSHQPQDRYKAVWLIFFMLGLG [SLC29A1], the protein stability index came out at 2.52 ± 0.61 under setting [1] and 2.41 ± 0.43 under setting [2].
On to MVGQKDSVILSVKFSPFGQWWASV [TLE6], for which the protein stability index is, setting by setting: under setting [1], 2.95 ± 0.35; under setting [2], 2.89 ± 0.35.
As to MVVDFWTWEQTFQELIQEAKPRAT [RTP4], the protein stability index is, setting by setting: under setting [1], 2.5 ± 0.49; under setting [2], 2.2 ± 0.36.
Taken in the same sequence, the figures for MYGVDLHHAKDSEGVEIMLGVCAS [EPB41L3] were 2.71 ± 0.3 and 2.77 ± 0.51.
In the case of MYHPRELYPSLGAGYRLGPAQPGA [TBX6], the protein stability index is, setting by setting: under setting [1], 2.78 ± 0.25; under setting [2], 2.71 ± 0.11.
On to NATAPRSPSHSPEHRRTARRTPPG [ELOA2], for which the protein stability index by setting is: under setting [1], 5 ± 0.15; under setting [2], 5.2 ± 0.36.
For NCPAHWLAQDWERCNTTCGRGVKK [ADAMTSL2], the protein stability index is, setting by setting: under setting [1], 4.16 ± 0.19; under setting [2], 4.42 ± 0.16.
On to NDIRIFLEKVLEENAQKKRFNQVL [VPS39], for which the protein stability index is 2.1 ± 0.24 under setting [1] and 2.27 ± 0.29 under setting [2].
In the case of NEKQLHTLRTCYAANPRPDALMKE [ISL2], the protein stability index was found to be 4.05 ± 0.43 under setting [1] and 4.15 ± 0.53 under setting [2].
As for NFLACLASFCVETNNGAGFGLSIL [SCAMP3], the protein stability index was found to be 3.02 ± 0.55 under setting [1] and 2.99 ± 0.41 under setting [2].
Taken in the same sequence, the figures for NFLTQRENTIAGANHTHTFYGHSH [C10orf62] were 3.1 ± 0.26 and 3.09 ± 0.2.
Take NFQNIPKETELPFPKQILDQNNVI [MIA2]: the protein stability index by setting is: under setting [1], 3.54 ± 0.34; under setting [2], 3.45 ± 0.24.
NFSLATNTKYSVYIYVYFHTKLTS [R3HDM1] displayed a protein stability index under setting [1] of 2.6 ± 0.41 and a protein stability index under setting [2] of 2.36 ± 0.9.
Consider NHIGMGVRYNAEKKKVGNYYTTPI [YJU2B], for which the protein stability index came to 3.03 ± 0.22 under setting [1] and 3.27 ± 0.18 under setting [2].
For NIGKSHQGLKLYAVEISDHPGEHE [CPXM2], the protein stability index amounted to 4.24 ± 0.13 under setting [1] and 4.07 ± 0.41 under setting [2].
Regarding NIMPYESTRVCLQPIRGVEGSDYI [PTPRD], the protein stability index runs as follows: under setting [1], 2.91 ± 0.084; under setting [2], 3.09 ± 0.18.
For the sequence NKVAGHPLAQNERCLHMFLQDEII [SNX3], the protein stability index by setting is: under setting [1], 2.64 ± 0.2; under setting [2], 2.7 ± 0.46.
With NNHESLDEELHLLIISCRKLFYFK [FBXO39], the protein stability index is 2.25 ± 0.32 under setting [1] and 2.12 ± 0.16 under setting [2].
For NPKLPNISLDVLQPSFPEILLESH [POMT2], in that order: 3.52 ± 0.21 and 3.84 ± 0.34.
Regarding NPNFEVAESDYSNNIMKCRSRYDG [LOXL2], the protein stability index was determined as 4.42 ± 0.24 under setting [1] and 4.42 ± 0.33 under setting [2].
NQNLSNRPSFNRTPIPWLSSGEPV [MYOZ1]: the protein stability index was 3.43 ± 0.38 under setting [1] and 3.5 ± 0.15 under setting [2].
As for NQPSGLIRTYLGRSPLVSGDESSL [RHOBTB3], the protein stability index came out at 3.85 ± 0.25 under setting [1] and 3.84 ± 0.3 under setting [2].
Taken in the same sequence, the figures for NRASLYSFPEPEAAQPMTKKRKVD [PRAME] were 4.54 ± 0.27 and 4.74 ± 0.14.
For NREHLVMMEKILGPIPSHMIHRTR [CLK3], in that order: 2.79 ± 0.34 and 2.89 ± 0.33.
For NRGINITIYGKTFRVVDCDQFTQV [EFHC1], in that order: 2.24 ± 0.53 and 2.72 ± 0.51.
Regarding NSPSSPSSSAASSSSPSSSSAVV [RHOBTB2], the protein stability index is, setting by setting: under setting [3], 5.31 ± 0.12; under setting [4], 5.456 ± 0.023.
In the case of NTPMEETVRAMTHVINQGMAMYWG [KCNAB2], the protein stability index under setting [1] was 2.92 ± 0.39 and the protein stability index under setting [2] turned out to be 3.13 ± 0.96.
In the case of NVEMDAAPGVDLSRILNEMRDQYE [KRT16], the protein stability index under setting [1] came to 4.34 ± 0.18 and the protein stability index under setting [2] is 4.46 ± 0.37.
For NVKYLKKILDELEKVLDQVETELQ [GDAP1], in that order: 4.25 ± 0.077 and 4.23 ± 0.14.
As for NYRIAGARLMRSNYPPPLSSAALR [C6orf223], the protein stability index amounted to 3.16 ± 0.41 under setting [1] and 3.2 ± 0.3 under setting [2].
For the sequence PAAGRELPPDMTVVPGDHLLEPEV [KCNA3], the protein stability index runs as follows: under setting [1], 5.3 ± 0.15; under setting [2], 5.31 ± 0.08.
As to PADGWKGERPRSEEDNELNLPNLA [GCH1], the protein stability index was 5.33 ± 0.34 under setting [1] and 5.36 ± 0.35 under setting [2].
In the case of PALDIFGDLFESTPEVAAAPKPDA [SNAP91], the protein stability index stood at 4.57 ± 0.21 under setting [1] and 4.67 ± 0.27 under setting [2].
For PASFPTWGCDLGVVTRVVTGVYPR [BRF1], in that order: 2.37 ± 0.16 and 2.39 ± 0.3.
With PDGGGPWLEDEPGRGAQGENERVR [ZSWIM9], the protein stability index was found to be 5.41 ± 0.43 under setting [1] and 5.5 ± 0.3 under setting [2].
As to PDRVYIHPDSPATGAHWMRQPVSF [TBX6], the protein stability index under setting [1] was 2.45 ± 0.22 and the protein stability index under setting [2] worked out at 2.54 ± 0.098.
Turning to PDVTRVGLLQYGSTVKNEFSLKTF [MATN2], the protein stability index is 2.94 ± 0.23 under setting [1] and 2.85 ± 0.44 under setting [2].
Turning to PEENYPSLQMSSAEMPHTETVSPL [NANOGP8], the protein stability index by setting is: under setting [1], 5.25 ± 0.12; under setting [2], 5.28 ± 0.18.
Taken in the same sequence, the figures for PEGQKVLFVTFLLIYMVTIMGNLL [OR4A15] were 3.06 ± 0.36 and 3.24 ± 0.5.
For PELNNNQYNRSSNSNGGNLNSPPG [CDC14A], in that order: 4.98 ± 0.15 and 4.84 ± 0.27.
For PGPMDWVPRYTGVAPQDQCKLTCQ [ADAMTS4], in that order: 3.77 ± 0.35 and 4.14 ± 0.36.
